The DeepSol protein solubility set

assay: soluble on expression in E. coli; label from the status in PepcDB or PDB records

Sequence | soluble on expression in E. coli
MAIKNAFYAQSGGVTAVINASACGVIQTARKHPDQIGKVYAGRNGIIGALKEELIDTSLESDDAIQALIHTPGGAFGSCRYKLKNISENQREYERLIEVFRAHDIGYFFYNGGGDSQDTAYKVSQLADRMGYPITCIGVPKTVDNDLPFTDCCPGFGSVAKYIATSTLEASLDIKSMCETSTKVFILEVMGRHAGWIAAAGGLAGQSEGEPPHVILFPEIPFNREKFLERVDQCVRDYGYCVVVASEGAQYEDGRFVADAGAKDAFGHTQLGGVAPALANMVKQALGHKYHWAVADYLQRAARHIASATDVEQAYAVGKAAVEMALAGKQALMPTIVRDQAKPYRWSIGEANLSEVANQEKKMPIHYITDNGFGITQDCRDYLQPLIAGESFPPFDDGLPRVAKLKNQLVEKKLRTEFEL | soluble
MADILLLDNIDSFTYNLVDQLRSSGHRVVIYRNHIAADNIIERLQQLEQPVLMLSPGPGTPAQAGCMPELLQRLQGQLPMIGICLGHQAIIEAYGGHVGQAGEILHGKASAIEHDGQGMFAGMPNPLPVARYHSLVGSNLPAELTVNARFGEMVMAVRHDAHRVCGYQFHPESILTTHGARLLEQTLAWALA | not soluble
MSLAMRFMLLLMLVGMAHGALANPLRVCVGDVNVWPPFTYWQGSSAQEKAESLTGSATTLVLEALKKQEIEYQLHFMPWARVQQELAQATGRCDLTWDASYRAERAEYSYFSVPLYTIQLGYFTLPENSKDLNLATDSDVLCGVNGFNYQNFALPREPSLTLNSVQQALNMLQKERCDWFVSEIEPIYGGIMLGLYQLDRPIQHHFLGKTKEYHVQVRRSLPNAMPLLNGLNEYILQAQSSGHAQAVFDRFLSITQTEGHHHHHH | soluble
MAHHHHHHMSSCKDSLSLMAMWGSIARFDPKHERSFEGPEKRLEVIMRVVDGTHVSGLLAHDDDVWQKVIDAICAHIVSREFNEYIRSYVLSESSLFVMKDRVILITCGTITLLNCVPLICEAVSTVCGEVEWVSFMHKNYSFPWEQKGPHLSMAEEFKTLRSHFPSGQPFIFGPIDSDHYFLYFHSDVVQPSCSDDAQLSMTMYGLDRNQTKHWYSDKMLPTGPETAVIREATGLSEVVDDSWILHDLQYEPCGYSINAIRGSEYQTIHITPEEHCSFASYETNTCALNYSKCICGVLRVFDPERFSVIVFIDPDSAVGKSYHSGGTIGVEPEYYPNYEAHHRTVNEYTPGHWVLKVNYVKRAVGTVGTSAASGAKE | not soluble
MSLATKVTLKDVAARAGVSYQTVSKVLNGEMQVAPETMERIQAAVQELGYRPNRIARNMRAGRSFMIGYSWTQTEPGQVNHILDQFLSSMVREAGAVNYFVLPFPFSEDRSQIDIYRDLIRSGNVDGFVLSSINYNDPRVQFLLKQKFPFVAFGRSNPDWDFAWVDIDGTAGTRQAVEYLIGRGHRRIAILAWPEDSRVGNDRLQGYLEAMQTAQLPIETGYILRGEGTFEVGRAMTLHLLDLSPERRPTAIMTLNDTMAIGAMAAARERGLTIGTDLAIIGFDDAPMVQYLFPPLSSVRQPIAEAGRKCIELLVAIVEGREPEQKHILLQPSLIIRASEGHHHHHH | soluble
MGSDKIHHHHHHMKVKDLLNITDEDELKKYRVFRALSRFNYFPNQKQAIGELPDCFTTSSLTPEVCLRLLSGGIDNKRKNTGFAPVEYKSTRYNNIPRVLSLVHPVAHAQLCKHIYENWQDIEYISANTISRVRPEFYEVDKRIVVMNYDDPIVKDRKFNDITFGKKYIVNADIASCFDSIYSHSIPWAIKGYEFAKNNRGENEWFNQFDKFLRTTKRCETNGMPIGPATSSICLEIILARVDSRLHDLGFEHERYVDDFCCYCSTKEQADEFIIKLSELLAEYRLSLNLRKTTIIELPIASTDDWIVELNSLCIDRYNADGDLVLIGAKEAINIINKAVFLSQSHKDGSVIKFAVGFLVKKLADTAYQDVFECLLSLSFHYPILIPYLSILLGRGNLEAQHYVDKFQMIIEENALHKRSDGMAWPLHIFREHNIEPTQEIVDRVLETKDCVAITILQDICPDNENIRQFVVDISNDLDIKKDEYWLLLYQSYLLGHINNPYRDRCFIVLKDYGVNFFKTDSRTKFEMRCDNVGAVWAFKELEEIKQPQAKAVNI | not soluble
MAQPYLPAEKFLSRKQETILLDEDEPAVVSSVRISPKKPYHVATTSSVRLTLYDTVVCEPLNLFSRFKKGVCSIDFRHDGRLLAIGGDEGKVRIFDVEKTTGSSKVALRVMQASQSTVKSVHFSPRGDTVFSMADDGKIKQYRVADTAYGVNAVPIIEIQAHEDAIRCGAVSSINDHIVLTGGYDHKVRLWDIRSKEKSLELDCEHPVESVLFLPGEQLIATAAGPIVKIWDTTTGRQLTALQAHYKTVTSLRLATNSTCLLSAGIDRRVNAFRTTNYSLINSWSMPSPVLDIDVSRDDQTMAIGMGNLLALYRRAEIKKEATASAAIEDKRSLIRTSAPPVKLVEKDRDMQKVDVVAKNADKLKIPKIDGMLSNFKHAAVIKLLFGGKFRSAMDTAVVSYLRVIVMRGAIHRALAGQERSVQKNILVFLNHNLYKAQYFSTLKEVVNAFFDVYALEKLDKDVVKHVQSLRGSLGRELEVQKMISSLIGSIDLIVSTTKMNVKSSSTALIEDNDVFGEPTIRARDLDELKPSDQGAEEEYEENMQIN | not soluble
MDLHADSLDGTRSGPGLPTSDTKASFEAHVREKFNRMVEAVDRTVEKRIDKLTKELAQKTAELLEVRAAFVQLTQKKQEVQRRERALNRQVDVAVEMIAVLRQRLTESEEELLRKEEEVVTFNHFLEAAAEKEVQGKARLQDFIENLLQRVELAEKQLEYYQSQQASGFVRDLSGHVLTDISSNRKPKCLSRGHPHSVCNHPDLKSHFHPKGRNHLKKAKDDRASMQPAKAIHEQAESSRDLCRPPKKGELLGFGRKGNIRPKMAKKKPTAIVNII | not soluble
VRRKVRRLTLAVSALVALFPAVAGCSDSGDNKPGATIPSTPANAEGRHGPFFPQCGGVSDQTVTELTRVTGLVNTAKNSVGCQWLAGGGILGPHFSFSWYRGSPIGRERKTEELSRASVEDINIDGHSGFIAIGNEPSLGDSLCEVGIQFSDDFIEWSVSFSQKPFPLPCDIAKELTRQSIANSK | not soluble
MNKFLGMYNTNTSNGGFVMSEKIYLKIDQQRYVKKPRVTIGDVMTVYCSDKDMIEKIGHITLAEFTLGKYDRKVFDALDVVGIIQKEYPDADIECLGECDFVVEYKKPEKEGTVH | not soluble
MSLTTIIFDNGGHNMKIGTIDSESPRLVPNSIVKAKHEKKRVFVAHEQEECSDKFSLFYVRPIERGYVVNWDTQQQIWEKTFGSMDVEASTSRIALTDNNYLIPALPDVSSEILFDYFGFTEVHKTSASTLVAKHSNKINNEKCAVVVDSGFSWTTVASFVNGMLIQDSVIRIDVGGKALTNKLKDWVSYRQLNVSEETYVINECKEDLCFVSQNFDESMKEARNRFQENTTMKRYIMPDFHSTFRGVVKDVKEPHDPQIPSIHLGVERFAIPEILFNPSDIDIDQCGVAEAVIESICQCPEALRPALAENIIVIGGSSCFPGFRERLEREVRSMLPAEYGLNVSNDVINPQTHSWHCGQELLTASKVPWINRKDWDERGDSLEFSNFFQTLVQSDELKGTRNFDDQREKSPKEDEDF | not soluble
MDIGDHGTHCAGIIAGFGPNVKIASLKHLSGNKFKDLDNWVSTMIKAINYADAMDIKIVNVSLGLHKSQIGDRPFDSQALNDAISNADLLFVTAAGNFNKNIDLPDDVIYPASCTAENIITVANTDKDDKLYESSNYGVISVDLAAPGTDIRSTIPTHLAGEGGPYDIKTGTSMSAPHVAGAAALLLSSNPSLTTQQLKDLILSSVDFLPDLQGKVATSGRLNVAKALRKIRTSVKIGDIDGNGEISSIDYAILKSHLINSNLTFKQLAAADVDGNGYVNSIDLAILQMYLLGKGGTSDIGKNRIYTYGDIDNNGIVDENDYILICNHINGTGQLSDASLFAADADGNNVIDQTDRILIEKYITGRITHLPVGNQ | not soluble
MPLTPADVHNVAFSKPPIGKRGYNEDEVDQFLDLVEDTLAEIQEENDDLRQQIEELQSSPRAEGSKPAAAPAAVSSLDETKLRKEIEAKVAAEYRAKLADAQEATERAQAELKMAREEADSAKAAAKKAEEAARAAASAATKAQPVAAVAPVGTDGGSATADTHLQAAKVLSMAQEMADRLTAEADSNSKSMLSEARAAAEKQVSDAEAKAKTTLADARQKAEKQLADADARSKALVSDAEKKSAQTLSDANTRAEAQVRQAEEKANALQADAERKHTEIMATVKQQQNALESRISELRTFEREYRTRLKTLLQTQLDELESRGTSAPEDKNV | not soluble
MGSDKIHHHHHHMRKLGFVLFVLITAVMTAQEEPLVSNIFQDTYILDALADISAQTGIPIIADTTVTGFITMELNEVPLEQALKMILMPGGYVFKKMDGFYLVGSPDPANPAFRYLAVTKTYKLKYITTADAQELLPAVYKSYVKFNEKNNMVTITAPEEIIQEFEEDLKKIDIPIPQVKISVIVTEVSKDYSNELGLNSLDYSFGSGQEFNENWSATLGLVTGIIDVQTDVFGQILAQLKLLEEDQKAKITADPWIIVKSGEKASLFLGERQVVLLQAEGAVSRIESIDVGVSIDIQPRVMDKEELELTLSPKVSHFAGEKLGTFAVKQNELSTTLFLKNGQTVVISGATIEDSAQTSSGVPILNKIPLIRYLFGGTTKKDSQKELYIFIKAEIQGSE | not soluble
MGSDKIHHHHHHMSEITTLQPSLLWKWFDQICAIPHPSHYEDTLANFIVNWAKEKHFFVERDEVGNVLIRKPATKGMENHTPVVLQAHLDMVPQANEGNPHDFTKDPIQPYIDGEWVKARGTTLGSDNGIGLASTLAVLESNDLAHPPLEVLLTMTEETGMDGAKGLRHNWLQSEILINTDTEEIGEIYIGCAGGINANFEIPVQYETNTFEHSAQITLKGLRGGHSGGDIHTGRANAIKVLARVLAKLSQNQPHFALSEIRGGSIRNAIPREAAAVLAFNGDVKTIESAVENLAVVLKEELAIAEPNFTLFVESAEKAPTVFTAQSTQTVINALNVLPNGVIRNSDVVKNVVESSLSVGVLKTEGNVVKSTILVRSLIESGKYYVTEMLSSLAILANAKVEFSAPYPGWQPVNDSTILDVTRKHYAEVLGEQPVVKVIHAGLECGLLKEHYPNIEMISVGPTIRNAHSPDEKVEIATVQTYWDLLTRVLADIPAK | not soluble
MFYITSKKVPFVTYSKNVFIPVTNICRNQCGYCGFRREPGQPGARLMKPEEVISVLENGVRAGCTEALFTFGERAEEVPGYGEMLEEIGYSSTLEYLVFLCETAIDIGILPHTNAGIMTRSELEALKPLNASMGLMLESTAVLAAHKDCPGKIPERRLETIREAGKLKIPYTTGLLIGIGESRDDRIESLEAIAALHREYGHIQEVIIQNFAPKPGTEMENFPEPAVEEMMDSVELAARILPGDVAVQVAPNLIDPKSLIAKGVTDLGGISPLTIDWINPEAEWPDVKNLQKKLGDIPLKERLPVYPPYVKKGWYSERIGSLIKRLSDNSGYLEHHHHHH | not soluble
MENAFKNKALYHQLVDLLQERIETCMIPHDKLPSERELTAQYGVSRTTVRLALQELENRGSIYRRHGKGTFVSDIKKEAADLAGAYSFTEQMKGLGRKPHTRILSFEKLEADKFICQHLNLSLGEAVFKLSRLRIADNEPLMVEDTYLPVKFFLSLTDQLLRSKPLYDLFSEDFKQTVRLADEELYASIASKEDAKLLMIPEGAPVLHLARQTYNMKNEIIEFTLSVARADQFHYQIRHIRNS | not soluble
MSLTEPEDPSRERLKHHFAQRVIHQARQILEIWQRLQRSEWSTTDMSELCEANLRLLRFAERFEQPEHTQLARSISQSLEAVDANRGRLSSNLITDLNRLMQRLSRTGLRHGDQLEQTFLPPLRKPIYVMLQDHDRAERLAKQLEFFGLSAQSLDSIPAFRSSMVERLPAAIVIDVDFCGAGMGLTLAAEAQVGLEQKLPLLFFSLHETDTPTRLAAVRAGGQEFLTGTLEASSLLEKIEVLTCVAQYEPYKVLIIDDSRAQALHTERLLNSAGIVTRTLIEPIQAMAELADFQPDLIILDMYMPACTGTELAKVIRHNDRYVSVPIIYLSAEDDLDKQLDAMSEGGDDFLTKPIKPRHLITTVRNRAARARNLKARMVRDSLTGEGHHHHHH | not soluble
